Experimental findings from article PMC3057327 (Methods (San Diego, Calif.), 2011) are described below.

Series [1] deals with the molecule itself. The series is described as follows: aggregates isolated by centrifugation + limited proteolysis.
The series “sedimentation assay” deals with the molecule itself. Kind of series: sedimentation assay.

B1: htt^NTQ20P10K2 (huntingtin N-terminal fragment peptide) (peptide)
chain: MATLEKLMKAFESLKSFQQQQQQQQQQQQQQQQQQQQPPPPPPPPPPKK
Regarding B1, the binding result in series [1] is listed as “binds”.

B2: K2Q23K2 (peptide)
chain: KKQQQQQQQQQQQQQQQQQQQQQQQKK
Take B2: in “sedimentation assay”, the binding result is recorded as “binds”.
